What is called half-life is how long it takes for the measured level to halve.

These results are taken from US12594347B2, “Nanoparticulate drug delivery systems” (Duke University, priority 2018, dated 2026).

A short description of data set [1]: Pharmacokinetics of CP-DOX and ABDN-CP-DOX micelles in mice. In kind it is in vivo. To be noted: Balb/C mice; for Apparent distribution volume VD / Distribution half-life β t1/2 / Elimination rate constant kg / Plasma clearance CL / Plasma to tissue rate constant kpt / Tissue to plasma rate constant ktp / Area under the curve AUC / Elimination half-life α t1/2: tail vein; for Area under the curve AUC / Elimination half-life α t1/2: plasma DOX. On the procedure:
The isopropanol extract was then centrifuged (14,000 RPM, 10 min, 4° C.) and 125 uL of the supernatant was loaded onto a black 96-well plate (BD Biosciences) in duplicate.

In the next data set the test system is C26 tumors. Kind of data set: Tumor regression and survival, C26 colon cancer model. Type of data set: in vivo, Balb/C mice. As for the experimental part: Cell culture and tumor inoculation.
Tumor regression and survival. […] Tumor size and body weight were monitored over a span of two months. Tumor volume was calculated as follows: Volume [mm^3]=length×width 2×π/6. Mice with a tumor volume greater 1000 mm^3 or body weight loss greater than 15% were euthanized.

Data set [2] is described as follows: pH dependent drug release. As for the experimental part: pH dependent drug release. […] Samples were incubated at 37° C. for 0.0, 0.25, […], 0.5, 1, 2, 4, 6, or 24 hr and were neutralized by addition of pH 7.4 (0.1 M NaH2PO4). […] Eluting peaks were detected with a UV-Visible detector set at 490 nm. […] HPLC data was quantified by integrating the area under the peak corresponding to the free drug. […] For pH 5.0 samples, data points were fit by nonlinear regression to a first order release model: F %, released=a[1−exp(−ln(2) t/t1/2)] (1) where t is the time (hrs) after incubation, t1/2 is the half-life (hrs) of release, and a (%) is the maximum extent of drug release.

Where [3] appears, read: printed 'at the dose of 10 mg/kg BW DOX equivalent' (first statement of b160).

B1: ABDN-CP-DOX (conjugate)
chain: LAEAKVLANRELDKYGVSDYYKNLINNAKTVEGVKALIDEILAALPVPGAGVPGAGVPGAGVPGAGVPGAGVPGAGVPGAGVPGAGVPGAGVPGAGVPGAGVPGAGVPGAGVPGAGVPGAGVPGAGVPGAGVPGAGVPGAGVPGAGVPGAGVPGAGVPGAGVPGAGVPGAGVPGAGVPGAGVPGAGVPGAGVPGAGVPGAGVPGAGVPGAGVPGAGVPGAGVPGAGVPGAGVPGAGVPGAGVPGAGVPGAGVPGAGVPGAGVPGAGVPGAGVPGAGVPGAGVPGAGVPGAGVPGAGVPGAGVPGAGVPGAGVPGAGVPGAGVPGAGVPGAGVPGAGVPGAGVPGAGVPGAGVPGAGVPGAGVPGAGVPGAGVPGAGVPGAGVPGAGVPGAGVPGAGVPGAGVPGAGVPGAGVPGAGVPGAGVPGAGVPGAGVPGAGVPGAGVPGAGVPGAGVPGAGVPGAGVPGAGVPGAGVPGAGVPGAGVPGAGVPGAGVPGAGVPGAGVPGAGVPGAGVPGAGVPGAGVPGAGVPGAGVPGAGVPGAGVPGAGVPGAGVPGAGVPGAGVPGAGVPGAGVPGAGVPGAGVPGAGVPGAGVPGAGVPGAGVPGAGVPGAGVPGAGVPGAGVPGAGVPGAGVPGAGVPGAGVPGAGVPGAGVPGAGVPGAGVPGAGVPGAGVPGAGVPGAGVPGAGVPGAGVPGAGVPGAGVPGAGVPGAGVPGAGVPGAGVPGAGVPGAGVPGAGVPGAGVPGAGVPGAGVPGAGVPGAGCGGCGGCGGCGGCGGCGGCGGCGG
Consider B1, for which, in data set [1] (10 mg/kg BW DOX equivalent), the “Apparent distribution volume VD” value was determined as 0.34 ± 0.01 mL/g, the “Distribution half-life β t1/2” value was 0.207 ± 0.0233 h, the “Elimination rate constant kg” value is 0.10 ± 0.01 h⁻¹ and the “Plasma clearance CL” value is 0.013 ± 0.000 mL/h/g. Moreover, in data set [1] (10 mg/kg BW DOX equivalent), the “Plasma to tissue rate constant kpt” value is 2.08 ± 0.27 h⁻¹, the “Tissue to plasma rate constant ktp” value worked out at 1.22 ± 0.13 h⁻¹, the “Area under the curve AUC” value is 1400.4 ± 34.2 µM·h and the “Elimination half-life α t1/2” value worked out at 18.3 ± 0.6 h. Also, in data set [1] (20 mg/kg BW DOX equivalent), the “Apparent distribution volume VD” value was 0.25 ± 0.11 mL/g, the “Distribution half-life β t1/2” value was 1.2 ± 0.292 h, the “Elimination rate constant kg” value is 0.08 ± 0.00 h⁻¹ and the “Plasma clearance CL” value is 0.011 ± 0.000 mL/h/g. Besides, in data set [1] (20 mg/kg BW DOX equivalent), the “Plasma to tissue rate constant kpt” value was found to be 0.25 ± 0.07 h⁻¹, the “Tissue to plasma rate constant ktp” value was determined as 0.29 ± 0.07 h⁻¹, the “Area under the curve AUC” value is 3328.5 ± 100.3 µM·h and the “Elimination half-life α t1/2” value amounted to 17.5 ± 0.8 h. Further, the “linearity of pharmacokinetics (in words)” value in data set [1] (10 vs 20 mg/kg BW DOX equivalent) was “linear pharmacokinetics”. In data set [1] (setting [3]), the “bioavailability i.e. AUC” value is 3328.5 ± 100.3 µM·h and the half-life stood at 17.5 ± 0.8 h. Further, the “tumor bearing mice that survived 60 days after treatment” value in the data set on C26 tumors (DOX equivalent dose of 20 mg/kg BW) is listed as 50%. The “tumor growth (in words)” value with C26 tumors (mouse C26 colon cancer model, single treatment on day 0) is reported as “significantly slower”. Also, the “in vitro drug release (in words)” value in data set [2] (acidic conditions, pH 5.0, 37° C.) is on record as “released the loaded DOX”. In addition, the “in vitro drug release / stability (in words)” value in data set [2] (pH 7.4, 37° C.) is listed as “remained stable”.
